A word on the stoichiometry N: it is the number of molecules, sites or subunits per partner or assembly.

The assay has as its target Fc6 (recombinant human IgG1 Fc protein) (human). As to the kind of experiment: SEC; analytical SEC of the Protein A purified reaction products on TSKgel SuperSW3000; native, non-reducing; 50 mM sodium phosphate pH 7.4, 300 mM NaCl, 25 °C. For orientation: Size exclusion chromatography separates by hydrodynamic size, large species first.

“Fc6 (recombinant human IgG1 Fc protein) (domain or fragment)”: the stoichiometry N was 2.

(Values after publication PMC3309923.)
